Source: the supplement of paper PMC12042874
± gives the uncertainty stated by the source.

Assay: amyloid nucleation score (Sup35N fusion, yeast selection) (log enrichment); library NNK3; higher = more nucleation; inactive = no reads after selection
In short: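 Random libraries were run with three technical output replicates. In each, psi-negative yeast expressing Sup35N fused to peptides of 20 random codons were induced 24 hours with 100 μM copper sulfate and grown 7 days at 30°C on medium lacking adenine and uracil, and input and output plasmid inserts were Illumina-sequenced. The nucleation score is the DiMSum log enrichment of output over input reads, centred on the mode score of non-aggregating sequences, and sequences under 100 input reads were excluded.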

Row | Substance | amyloid nucleation score
1 | LHSLKHNCVFSAIVGHCFQC | 2.11 ± 0.098
2 | LHTICHMLLIH | inactive
3 | LHTSTTPKTMKRRSQLSNQK | inactive
4 | LHVPGLIYF | inactive
5 | LIAMICSLGTYFLIVAFELI | inactive
6 | LIDNRRFRHLLTRNVFVSHH | inactive
7 | LILAQVLWFGFETGGKLETM | inactive
8 | LIPASLKADRQCAHSRYSR | inactive
9 | LIRCCFPHMSGVLFMKFTLT | inactive
10 | LIRVGKDRVVSMEEVRCLLR | inactive
11 | LISINLVQTSPRPRHYYLCS | inactive
12 | LISNAQA | inactive
13 | LITGLDLPGIWHTVYSYYSV | inactive
14 | LIWYRNDEWYSFLWMVYCSS | inactive
15 | LKAYKFMSSNQHTRTAFLGD | inactive
16 | LKLRSRITNINILDVRYWIC | inactive
17 | LKLTHD | inactive
18 | LKNHNLVTKHYYARLMIGLW | inactive
19 | LKRVDEVVIDPLYREGYTER | inactive
20 | LKSGVFFG | inactive
21 | LKTCFIP | inactive
22 | LKTSNRR | inactive
23 | LKVNIWLPGRPFTILWSPRR | inactive

Row | Substance | amyloid nucleation score
24 | LKYIDTSFMLGFSIVSLRFQ | inactive
25 | LKYLCYHRQCSLMPRCWMDR | inactive
26 | LKYSHEHGFFSYYACWCQQL | inactive
27 | LLCFVDVSYVHNA | 0.834 ± 0.23
28 | LLCSKARSCRVDRMKRGGWV | inactive
29 | LLDSVNGHCYMCLTIMGVRN | inactive
30 | LLFCVLFATPINCISLIMSE | inactive
31 | LLFFLAGVSSHIMYLVYARC | inactive
32 | LLFVVQWWFNRFFE | inactive
33 | LLIIVYLVWCALIRRGTQPR | inactive
34 | LLISGCRSFMMAFSGCL | inactive
35 | LLKEFIL | inactive
36 | LLKHMSLFVLRSSNR | inactive
37 | LLLRLLTMMVFNCILVDYGL | inactive
38 | LLLVKSTI | -0.176 ± 0.56
39 | LLLVSLELTRLNSHEWVYVI | inactive
40 | LLLVWRLKVSGGLDSNRTGV | 1.05 ± 0.13
41 | LLMGSSSSV | inactive
42 | LLRGLAIGKKDYIYSLLLLH | -0.619 ± 1.4
43 | LLRHDLYRVCTNRV | inactive
44 | LLRVCVSFRCIVNSCMRR | inactive
45 | LLSLFFIHPTATRRTKVSRC | inactive
46 | LLSPQFRRIGSFRWKFAPRF | inactive

Row | Substance | amyloid nucleation score
47 | LLYFSVLRSEL | inactive
48 | LLYYSSINYFLLLGFCSEEL | 1.51 ± 0.065
49 | LMAVHMGMCMHEILHAVSLR | inactive
50 | LMETSSRYTFYMKGLHRTMS | 0.428 ± 0.27
51 | LMGVDSLLYRKHSGV | inactive
52 | LMIISGCSHMSHSVRSTRGL | -0.217 ± 0.58
53 | LMIMSKVSKSP | 0.465 ± 0.25
54 | LMLMVCVN | -0.601 ± 0.74
55 | LMNEKNPSQDNRFRIVRALS | inactive
56 | LMNEY | inactive
57 | LMPRTEI | inactive
58 | LMSYSRFGCSDSYLNVDSSA | inactive
59 | LNAMWAWSRLDCNWGIQRNR | inactive
60 | LNCDIVFELL | inactive
61 | LNFCDRTIEICRLEY | inactive
62 | LNGSAHYRGCCLKRRTICWM | inactive
63 | LNLGHDGYPNTSARVFHFC | inactive
64 | LNMLKVLFSWIRYDGNQ | inactive
65 | LNPPNKYDLDVFWVMVSYKK | inactive
66 | LNRDGVISMFFSFCGGTRPR | -0.452 ± 0.93
67 | LNTGLLLLCG | inactive
68 | LNTKEYLLYKRICTSNANLL | -0.621 ± 1.1
69 | LNVRSI | inactive

Row | Substance | amyloid nucleation score
70 | LNVYNWKN | inactive
71 | LNYNF | inactive
72 | LPALEQNVLHLVMVIY | inactive
73 | LPGCVSEFG | inactive
74 | LPIKMGMLLSICDLLG | inactive
75 | LPRTYRKALVPNVVVFSYLT | inactive
76 | LPVVFLCRYDSI | inactive
77 | LPYQIIWRCCAMVNFDFLVL | inactive
78 | LPYYCSIDAVMCREPTGLGS | inactive
79 | LQAQMYCLTTLWSWFGRVSR | inactive
80 | LQAYAMGNYRGDKK | inactive
81 | LQFVMLRTWVLRSRGTQAVT | 0.592 ± 0.21
82 | LQKIKCSQADYWREMTVRDR | 1.01 ± 0.16
83 | LQLWVSFSSVKLCYCISHSF | inactive
84 | LQVLFSYYFENRSGDLVRDD | 0.641 ± 0.14
85 | LQYRSL | inactive
86 | LRAKTRHSVLNCDRIVEPGG | 1.49 ± 0.13
87 | LRCWYFLNMMMPYPPPSIKW | inactive
88 | LRGGKVMITRFVSCSI | inactive
89 | LRGSRYFWDWAPSYYFVHLR | inactive
90 | LRGSYNVS | inactive
91 | LRKRELCGIPSINAAPGLLG | inactive
92 | LRLNLMSILKVEYRCSMITW | inactive

Row | Substance | amyloid nucleation score
93 | LRLSGVMHRTFYCVVSGHGR | inactive
94 | LRMFNGSEAIYFMLVQSLFR | inactive
95 | LRNIMGECDSAWKDVMVGVA | inactive
96 | LRNLVTWRVQSKWFSIQSSW | inactive
97 | LRNVYTRVEITQLLTRTSGS | inactive
98 | LRRRVKSFSELYLAVTRVML | 0.286 ± 0.43
99 | LRRSVSIGDPGASLIKTSFA | inactive
100 | LRRYVARNRRSYFTESLPRA | -0.123 ± 1.4
101 | LRSVLSVGGEMAYINCNQLL | inactive
102 | LRSWNMLPRWVGRYWIFGGK | inactive
103 | LRTAEDFETS | -0.416 ± 1.5
104 | LRTFKITFRGTVKTRRSLTN | 0.466 ± 0.63
105 | LRTPGTGSFAESEDLSMTEG | inactive
106 | LRVCISGYSN | inactive
107 | LRVMSI | -0.964 ± 2.5
108 | LRWYPDSCYVSV | inactive
109 | LRYGEFSCSNLYFTWLSFIL | 0.749 ± 0.17
110 | LRYVGCTKMSGAMGARS | inactive
111 | LRYWPVCLVQIAFDFTVTGV | 1.97 ± 0.062
112 | LRYWWLDLTYYL | inactive
113 | LSAHMMSCIKVYEFGFGCVD | inactive
114 | LSALHSVYLINAISFGFNQT | 1.09 ± 0.13
115 | LSDDMPKV | inactive

Row | Substance | amyloid nucleation score
116 | LSDWKFDMCYCFFVLCQELW | inactive
117 | LSDYEDIAISFIKYRCSSLN | 1.42 ± 0.11
118 | LSFHP | inactive
119 | LSFRTQALFYFVMLYGIWRA | inactive
120 | LSFSRDRLLHSSWGTKLMIM | inactive
121 | LSFTHSSDTECCGER | inactive
122 | LSFYCFNYSNFDMVWNGKYN | 2.29 ± 0.062
123 | LSGFSMIFREDNSVVFV | inactive
124 | LSGVLLILSMYLDYWTNIF | inactive
125 | LSINLASSSGVSVLLKGSNL | 0.87 ± 0.24
126 | LSKRRTIILGLVELRYSEVE | inactive
127 | LSLCRT | 0.001 ± 0.32
128 | LSLFPMGCIYKHRIGLVTAK | inactive
129 | LSLISVSLG | inactive
130 | LSLREE | inactive
131 | LSMHVVFVYIGFPHMDFDGS | inactive
132 | LSMSAVL | inactive
133 | LSMVRLNFTRIC | inactive
134 | LSNHCARVF | inactive
135 | LSSFNDDMNGVTFYPSISLD | inactive
136 | LSSIAFCFN | 1.15 ± 0.15
137 | LSSLVSFVITQLRLLMKTER | inactive
138 | LSSTV | inactive

Row | Substance | amyloid nucleation score
139 | LSSYTVSFPKRMHRSEYFGY | -0.73 ± 0.9
140 | LSTFMWNQAVWTPRIFWRCA | inactive
141 | LSVELCTCGVRPQATYYPQG | 1.31 ± 0.13
142 | LSVGVSRCLNPLLTIGSGRE | 1.28 ± 0.096
143 | LSVLFCLDGK | inactive
144 | LSYSRTGASC | inactive
145 | LTFTAVNWAVPVGRGT | inactive
146 | LTKYRGPQDVRNAFSCSNIM | inactive
147 | LTMSRMMYLDKMLYFLYVQW | inactive
148 | LTRFQ | inactive
149 | LTRLLGDLIPPVNMGARECD | inactive
150 | LTTPVTR | -0.169 ± 0.63
151 | LTTQSGLMAGRKKFWDAELG | 0.902 ± 0.21
152 | LTVLDQSCSIYYCTSLHKS | 1.92 ± 0.087
153 | LTVNDDFRYKAFWVCRSMFV | inactive
154 | LTVRKSY | inactive
155 | LVDLLHTMYSCYLGYKSFRG | inactive
156 | LVEHVEVCVIYCSCDCFSSV | 1.86 ± 0.059
157 | LVEMNFLAVINRFICSSSLP | inactive
158 | LVFASSVSSSDLTLCVGSCM | -0.594 ± 2.4
159 | LVFPVKKSLVCEGV | inactive
160 | LVFVCARQSTIEVRGKQSRM | 2.06 ± 0.065
